B1: O4G1 (antibody, V domains shown)
VH: EVQLLESGGGLVQPGGSLRLSCAASGFRFDYEDMGWVRQAPGKGLEWVSSIDSHGASTYYADSVKGRFTISRDNSKNTLYLQMNSLRAEDTAVYYCAKYSHSVSYGPFDYWGQGTLVTVSS
VL: DIQMTQSPSSLSASVGDRVTITCRASQYIYDDLNWYQQKPGKAPKLLIYSASSLQSGVPSRFSGSGSGTDFTLTISSLQPEDFATYYCQQTNTYPQTFGQGTKVEIK
B2: O4C12 (antibody, V domains shown)
VH: EVQLLESGGGLVQPGGSLRLSCAASGFRISDEDMGWVRQAPGKGLEWVSYIDNAGASTYYADSVKGRFTISRDNSKNTLYLQMNSLRAEDTAVYYCAKQINQGEGFDYWGQGTLVTVSS
VL: DIQMTQSPSSLSASVGDRVTITCRASQSISSYLNWYQQKPGKAPKLLIYYASNLQSGVPSRFSGSGSGTDFTLTISSLQPEDFATYYCQQGLGMPITFGQGTKVEIK

Biological target: SARS-CoV-2 S protein RBD (residues 319-541 of the S protein), soluble, with C-terminal Avitag and His tag (SARS-CoV-2, UniProt P0DTC2 319-541)

Binder	Kd
B1	19 nM
B2	23 nM

— patent publication US20240043506A1 (GARVAN INSTITUTE OF MEDICAL RESEARCH, published 2024)
